In the experiment the target is His-tagged human CTLA-4 antigen (Homo sapiens, UniProt P16410).
Sequence of His-tagged human CTLA-4 antigen (P16410 36-161): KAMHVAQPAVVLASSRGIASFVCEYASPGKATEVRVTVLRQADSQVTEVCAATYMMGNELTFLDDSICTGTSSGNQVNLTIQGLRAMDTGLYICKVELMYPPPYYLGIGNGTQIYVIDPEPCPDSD

B1: aCTLA-4.9 (antibody, V domains shown)
VH: QVQLVESGGGVVQPGRSLRLSCAASGFTFSSFGMHWVRQAPGKGLEWVAVIWYDGRNKYYVDSVKGRFTISRDNSNNTLYLQMNSLRAEDTAVYYCARGEFFGEFFDYWGQGTLVTVSS
VL: EIVLTQSPGTLSLSPGEGATLSCRASQSFSSNYLAWYQQKPGQAPRLLIYGASSRATGIPDRFSGSGSGTDFTLTISRLEPEDFAVYYCQQYGTSPFTFGPGTKVDIK
With B1, binding was put at a Kd of 0.77 nM.

B2: aCTLA-4.24 (antibody, V domains shown)
VH: QVQLVESGGGVVQPGRSLRLSCAASGFTFSSHGMHWVRQAPGKGLEWVAVIWYDGSNKHYADSVKGRFTISRDNSKNTLYLQMNSLRAEDTAVYYCARGDILTGYYGYWGQGTLVTVSS
VL: not shown
In the case of B2, the Kd (usually the free concentration of one partner at which half of the binding sites on the other are occupied at equilibrium, for simple one-to-one binding) turned out to be 6.8 nM.

B3: aCTLA-4.1 (antibody, V domains shown)
VH: QVQLVESGGGVVQPGRSLRLSCAASGFTFSRYGMHWVRQAPGKGLEWVAVIWYDGRNKYYADSVKGRFTISRDNSKNTLYLQMNSLRAEDTALYSCARAGELGPFDYWGQGTLVTVSS
VL: EIVLTQSPGTLSLSPGERATLSCRASQSVSYLAWYQQKPGQAPRLLIYGASSRATGIPDRFSGSGSGTDFTLTISRLEPEDFAVYYCQQYGSSPWTFGQGTKVEIK
B3 came in with a Kd of 4.6 nM.

B4: aCTLA-4.26 (antibody, V domains shown)
VH: QVQLVESGGGVVQPGRSLRLSCAASGFTFSSYGMHWVRQAPGKGLEWVAVIWYDGSYKYYADSVKGRFTISRDDSKNTLYLQMSSLRAEDTAVYYCARAPHYAILTGYYEDYWGQGTLVTVSS
VL: not shown
On to B4, for which the Kd was determined as 5.7 nM.

B5: aCTLA-4.4 (antibody, V domains shown)
VH: QVQLVESGGGVVQPGRSLRLSCAASGFTFSNYGMNWVRQAPGKGLEWVAVIWYDGRNKHYADSVKGRFTISRDNSKNTLYLQMNSLRAEDTAVYYCARGGDWGPYFDYWGQGTLVTVSS
VL: not shown
In turn, B5 gave a Kd of 5.1 nM.

For the origin of these results see paper doi:10.1101/2021.07.12.452090 (bioRxiv, 2021).
